Laboratory results as given in publication PMC9399289.

Target: T1, GST-SDE2-FLAG WT (human) (UniProt Q6IQ49)
T1 sequence: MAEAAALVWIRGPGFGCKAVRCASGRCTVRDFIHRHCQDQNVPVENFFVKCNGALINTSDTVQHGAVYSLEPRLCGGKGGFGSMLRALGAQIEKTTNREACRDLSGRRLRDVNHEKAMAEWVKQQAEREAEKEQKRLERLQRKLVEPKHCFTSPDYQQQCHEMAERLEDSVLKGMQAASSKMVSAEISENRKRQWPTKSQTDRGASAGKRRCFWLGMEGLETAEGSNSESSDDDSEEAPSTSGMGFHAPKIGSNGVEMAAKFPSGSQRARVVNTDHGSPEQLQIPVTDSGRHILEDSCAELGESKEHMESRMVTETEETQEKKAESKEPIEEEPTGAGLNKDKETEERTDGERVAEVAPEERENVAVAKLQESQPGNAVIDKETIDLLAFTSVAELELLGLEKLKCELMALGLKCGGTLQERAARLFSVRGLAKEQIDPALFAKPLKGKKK
Assay: fluorescence anisotropy
Conditions: EMSA: 10 mM Tris-HCl pH 7.5, 50 mM NaCl, 0.5 mM DTT, 0.05 mM EDTA, 3% glycerol, 0.05 mg/ml BSA (or 50 mM Na/K PO4 pH 6.0, 50 mM NaCl, 5 mM DTT), on ice …

“GACGCTGCCGAATTCTACCAGTGCCTTGCTAGGACATCTTTGCCCACCTGCAGGTTCACCC (double strand) [60-mer dsDNA (EMSA1/EMSA2)]” showed a Kd of 24.2 µM.
